Measured values: the supplement of paper PMC10567573

B1: C2CD2L (parent)
chain: LTLKVLRSSSCGDTELLGQATLPV
B2: CSNK1G1 (parent)
chain: GSLPWQGLKADTLKERYQKIGDTK
B3: SCNN1D (parent)
chain: IRVMVHGRNHTPFLGHHSFSVRPG

Variants of: B1
Experiment: protein stability index of a GFP-peptide fusion (GPS, HEK-293T) (PSI 1-6); higher = more stable
Conditions: c terminus: a fixed tail appended
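Further: lentivirally expressed fusions sorted by FACS into six bins by GFP to DsRed ratio, PSI derived from sequencing read proportions per bin multiplied by bin number.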

Protein stability index, by site and new letter:
Q19: P 2.06, W 3.5, Y 3.56, S 2.79, V 1.43, T 1.59, N 3.21
V24: N 1.92, H 1.37, M 4.58, A 2.59, K 1.85, T 1.81, S 1.98, F 2.7, G 2.02, P 2.41, R 3.59, Q 1.82, E 1.54, D 1.64
A20: D 1.45, G 1.03, E 2.1, Q 2.09, N 2.49, H 1.23, W 3.17, R 1.44, I 2.35, T 1.79, P 1.96, L 2.33, K 3.04, M 2.92, S 1.48
L22: N 2.32, W 2.21, K 1.97, I 2.36, T 1.75, P 1.87, V 2.75, E 1.74, S 1.61, H 1.54, Y 3.26, M 1.56, Q 1.28, R 1.6, D 2.67, A 2.46, G 1.75, C 2.52
P23: A 3.27, C 3.55, F 1.57, G 4.54
T21: V 2.34, P 2.22, L 2.39, Y 3.37, N 2.36, H 2.21, R 3.3, A 1.09, G 2.94, Q 1.58, K 2.08, E 1.58, D 1.57, C 1.68, F 3.74, M 2.27, S 2.06

Variants of: B2
Experiment: as above
Conditions: c terminus: a fixed tail appended

Protein stability index: each site, then its substitutions
S2: E 4.6, Y 4.01, Q 4.57, I 3.47, P 3.95, A 4.14, C 3.22, F 3.73, M 4.07, G 3.69, T 4.21, H 3.16, N 4.11, D 4.53, L 4.17, R 3.83, K 4.37, V 3.35, W 3.04
W5: I 3.99, C 4.7, D 5.18, H 4.53, F 4.75, E 5.42, G 4.53, A 4.98
L3: D 4.2, C 4.31, Q 4.63, H 4.58, P 3.88, V 4.37, R 3.81, N 4.09, F 3.71, K 4.12, W 3.41, G 4.42, A 4.38, I 4.55, M 4.54, Y 4.09, T 4.09, S 4.2, E 4.18
G1: L 3.89, K 4.17, Y 2.08, H 4, W 3.6, D 4.35, T 4.04, E 4.44, M 4.35, P 4.15, I 3.52, C 3.34, S 3.97, R 4.16, N 4.13, Q 4.03, F 2.73, A 4.05, V 3.79
P4: I 3.67, L 3.78, Y 3.73, C 3.42, D 4.37, A 4.02, N 3.95, H 4.17, T 4.08, G 4.02, F 2.84, R 4.37, M 4.55, W 3.09, K 4.28, E 4.46, Q 4.3, S 4.49, V 4.09

Variants of: B3
Experiment: as above
Conditions: c terminus: a fixed tail appended

Protein stability index: each site, then its substitutions
F19: N 1.09, G 1.52, I 2.41, T 2.35, M 1.87, R 1.09, K 1.77, D 1.53, H 1.91, Q 1.77, P 1.01
G15: Q 1.54, T 1.88, V 4.3, E 4.06
L14: Y 2.42, W 2.98, N 2.43, E 1.8, Q 2.67, H 2.23, I 2.76
R22: D 2.85, W 3.39, M 3.3, P 1.68, G 1.39, F 2.77, S 2.31
P23: A 1.32, N 2.25, T 1.8, W 1.89, K 1.44, Q 1.64, S 2.45
R8: E 2.47, H 3.06, A 2.25
H6: C 2.51, P 2.34, E 2.27, Y 2.35, A 2.13, D 2.53, K 3.76, Q 3.67, T 2.35, F 1.91
H16: S 2.26, L 3.83, Q 3.16
G7: I 2.67, S 1.72, C 1.7, M 2.97, E 2.05, T 1.92, K 2.48, R 2.12
V5: D 1.1, T 1.89, A 2.48, S 1.21, M 3.81, G 2.89, P 2.12, N 1.66, Q 1.87, H 2.32, E 2.64
H10: M 2.15, E 1.94, C 2.19, L 3.2, V 3.51
V21: H 3.02, A 1.8, R 2.78, E 1.41, D 1.42, L 2.48, S 1.87, N 1.49, F 2.91
H17: E 1.51, P 2.38, R 2.73, K 2.99, G 3.13, V 2.27, T 1.89, Y 4.62, L 3.67
V3: T 2.2, P 2.75, N 1.85, Y 2.43, H 2.07, D 2.17, K 3.58, Q 1.91, F 1.93, S 2.13, R 2.13, W 1.6, A 2.42, G 2.33, L 2.11
P12: R 3.86, I 3.72, Y 1.97, H 1.48, G 4.32
I1: H 2.74, W 2.71, F 1.82, L 1.31, Q 3, D 2.63, P 2.61, T 2.62, M 1.89, K 2.21, S 3.19, R 3.65, E 2.04, N 2.85, A 2.28
S18: D 2.01, P 2.79, I 5.22, R 4.09, W 4.89
N9: C 1.89, G 2.67, M 5.71, E 3.01, V 3.7, Y 4.19
T11: F 2.59, Q 2.44, Y 3.8
M4: A 1.92, D 1.88, P 3.2, W 2.32, K 1.72, G 1.5, N 2.92
S20: N 1.84, K 2.98, I 2.92, T 2.59
G24: R 1.19, K 1.16, N 1.56, D 2.04, H 1.84, I 2.44
R2: A 2.26, P 1.76, G 2.91, L 2.6, N 2.13, Q 1.58, T 1.51, D 2.76
F13: Y 2.77, H 1.36, R 1, G 1.96, N 1.77, A 4.08, L 1.19
